Experimental data from US20210102192A1 (TWIST BIOSCIENCE, published 2021).

Target: T1, Prostaglandin D2 receptor 2 (CRTH2R) (UniProt Q9Y5Y4 1-395)
T1 chain: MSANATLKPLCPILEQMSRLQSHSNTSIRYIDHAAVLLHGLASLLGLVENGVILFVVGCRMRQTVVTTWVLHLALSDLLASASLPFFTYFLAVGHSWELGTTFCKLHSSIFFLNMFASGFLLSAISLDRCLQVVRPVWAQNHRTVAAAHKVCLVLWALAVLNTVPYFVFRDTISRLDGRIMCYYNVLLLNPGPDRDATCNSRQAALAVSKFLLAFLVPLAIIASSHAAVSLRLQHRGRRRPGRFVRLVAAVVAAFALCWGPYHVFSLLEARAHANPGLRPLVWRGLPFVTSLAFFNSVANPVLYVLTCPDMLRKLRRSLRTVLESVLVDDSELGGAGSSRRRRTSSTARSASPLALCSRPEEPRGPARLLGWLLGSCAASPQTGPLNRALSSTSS
Test: FACS binding; CRTH2R-positive cells

B1: CRTH2-41-51 (Fc fusion)
chain: EVQLVESGGGLVQPGGSLRLSCAASGGIFRFNAMGWFRQAPGKERELVAGISGSGGDTYYADSVKGRFTISADNSKNTAYLQMNSLKPEDTAVYYCAAFRGIMRPDWGQGTLVTVSS
An EC50 of 0.181 nM was found for B1 in this work.
